B1: Lysozyme C, P61626 (parent)
chain: MKALIVLGLVLLSVTVQGKVFERCELARTLKRLGMDGYRGISLANWMCLAKWESGYNTRATNYNAGDRSTDYGIFQINSRYWCNDGKTPGAVNACHLSCSALLQDNIADAVACAKRVVRDPQGIRAWVAWRNRCQNRDVRQYVQGCGV

Variants of: B1
Conditions: Homo sapiens; pH 2.6; Thermal; DSC; Gly-HCl 0.05 M; structure 1LZ1; whole UniProt chain shown

| Variant | Tm [°C] | unfolding enthalpy (calorimetric) [kcal/mol] | unfolding enthalpy (van 't Hoff) [kcal/mol] |
| --- | --- | --- | --- |
| V20R | 62.1 | 103 | 110 |
| V20N | 59.1 | 104 | 99.9 |

Same assay, conditions: Homo sapiens; pH 2.7; 64.9 °C; Thermal; DSC; Gly-HCl 0.05 M; structure 1LZ1; whole UniProt chain shown

| Variant | ddG of mutation (higher = less stable) [kcal/mol] | heat capacity change of unfolding [kcal/mol/K] | unfolding enthalpy (calorimetric) [kcal/mol] |
| --- | --- | --- | --- |
| V20R | 0.38 | 1.41 | 106 |
| V20N | 1.34 | 1.7 | 114 |
| V20Y |  | 1.82 | 106 |
| V20D | 1.43 | 1.58 | 111 |
| V20S | 1.41 | 1.55 | 111 |
| V128R | -0.88 |  | 101 |

Same assay, conditions: Homo sapiens; pH 2.7; Thermal; DSC; Gly-HCl 0.05 M; structure 1LZ1; whole UniProt chain shown

| Variant | Tm [°C] | change of melting temperature, mutant - wild type (higher = more stable) [°C] |
| --- | --- | --- |
| V20R | 63.6 | -1.3 |
| V20N | 60.8 | -4.1 |
| V20D | 60.4 | -4.5 |
| V20S | 60.5 | -4.4 |
| V128R | 67.8 | 2.9 |
| V128D | 65.4 | 0.5 |

Same assay, conditions: Homo sapiens; pH 2.88; Thermal; DSC; Gly-HCl 0.05 M; structure 1LZ1; whole UniProt chain shown

| Variant | Tm [°C] | unfolding enthalpy (calorimetric) [kcal/mol] | unfolding enthalpy (van 't Hoff) [kcal/mol] |
| --- | --- | --- | --- |
| V20R | 66.4 | 108 | 115 |

Same assay, conditions: Homo sapiens; pH 3.15; Thermal; DSC; Gly-HCl 0.05 M; structure 1LZ1; whole UniProt chain shown

| Variant | Tm [°C] | unfolding enthalpy (calorimetric) [kcal/mol] | unfolding enthalpy (van 't Hoff) [kcal/mol] |
| --- | --- | --- | --- |
| V20R | 70.7 | 114 | 123 |
| V128R | 75 | 117 | 120 |

Same assay, conditions: Homo sapiens; pH 3.3; Thermal; DSC; Gly-HCl 0.05 M; structure 1LZ1; whole UniProt chain shown

| Variant | Tm [°C] | unfolding enthalpy (calorimetric) [kcal/mol] | unfolding enthalpy (van 't Hoff) [kcal/mol] |
| --- | --- | --- | --- |
| V20R | 74.1 | 120 | 126 |
| V20D | 70.2 | 120 | 118 |

Same assay, conditions: Homo sapiens; pH 2.82; Thermal; DSC; Gly-HCl 0.05 M; structure 1LZ1; whole UniProt chain shown

| Variant | Tm [°C] | unfolding enthalpy (calorimetric) [kcal/mol] | unfolding enthalpy (van 't Hoff) [kcal/mol] |
| --- | --- | --- | --- |
| V20N | 62.7 | 110 | 105 |

Same assay, conditions: Homo sapiens; pH 3.01; Thermal; DSC; Gly-HCl 0.05 M; structure 1LZ1; whole UniProt chain shown

| Variant | Tm [°C] | unfolding enthalpy (calorimetric) [kcal/mol] | unfolding enthalpy (van 't Hoff) [kcal/mol] |
| --- | --- | --- | --- |
| V20N | 66.3 | 117 | 111 |
| V20D | 65.7 | 113 | 109 |
| V128R | 72.8 | 114 | 116 |

Same assay, conditions: Homo sapiens; pH 2.83; Thermal; DSC; Gly-HCl 0.05 M; structure 1LZ1; whole UniProt chain shown

| Variant | Tm [°C] | unfolding enthalpy (calorimetric) [kcal/mol] | unfolding enthalpy (van 't Hoff) [kcal/mol] |
| --- | --- | --- | --- |
| V20Y | 65.9 | 108 | 110 |
| V20S | 62.9 | 108 | 107 |

Same assay, conditions: Homo sapiens; pH 2.91; Thermal; DSC; Gly-HCl 0.05 M; structure 1LZ1; whole UniProt chain shown

| Variant | Tm [°C] | unfolding enthalpy (calorimetric) [kcal/mol] | unfolding enthalpy (van 't Hoff) [kcal/mol] |
| --- | --- | --- | --- |
| V20Y | 67.4 | 111 | 112 |

Same assay, conditions: Homo sapiens; pH 3.2; Thermal; DSC; Gly-HCl 0.05 M; structure 1LZ1; whole UniProt chain shown

| Variant | Tm [°C] | unfolding enthalpy (calorimetric) [kcal/mol] | unfolding enthalpy (van 't Hoff) [kcal/mol] |
| --- | --- | --- | --- |
| V20Y | 72.3 | 119 | 120 |

Same assay, conditions: Homo sapiens; pH 3.21; Thermal; DSC; Gly-HCl 0.05 M; structure 1LZ1; whole UniProt chain shown

| Variant | Tm [°C] | unfolding enthalpy (calorimetric) [kcal/mol] | unfolding enthalpy (van 't Hoff) [kcal/mol] |
| --- | --- | --- | --- |
| V20Y | 72 | 120 | 120 |

Same assay, conditions: Homo sapiens; pH 3.24; Thermal; DSC; Gly-HCl 0.05 M; structure 1LZ1; whole UniProt chain shown

| Variant | Tm [°C] | unfolding enthalpy (calorimetric) [kcal/mol] | unfolding enthalpy (van 't Hoff) [kcal/mol] |
| --- | --- | --- | --- |
| V20Y | 73 | 121 | 122 |

Same assay, conditions: Homo sapiens; pH 2.66; Thermal; DSC; Gly-HCl 0.05 M; structure 1LZ1; whole UniProt chain shown

| Variant | Tm [°C] | unfolding enthalpy (calorimetric) [kcal/mol] | unfolding enthalpy (van 't Hoff) [kcal/mol] |
| --- | --- | --- | --- |
| V20D | 59.6 | 103 | 99.9 |

Same assay, conditions: Homo sapiens; pH 2.96; Thermal; DSC; Gly-HCl 0.05 M; structure 1LZ1; whole UniProt chain shown

| Variant | Tm [°C] | unfolding enthalpy (calorimetric) [kcal/mol] | unfolding enthalpy (van 't Hoff) [kcal/mol] |
| --- | --- | --- | --- |
| V20D | 64.9 | 112 | 108 |

Same assay, conditions: Homo sapiens; pH 3.14; Thermal; DSC; Gly-HCl 0.05 M; structure 1LZ1; whole UniProt chain shown

| Variant | Tm [°C] | unfolding enthalpy (calorimetric) [kcal/mol] | unfolding enthalpy (van 't Hoff) [kcal/mol] |
| --- | --- | --- | --- |
| V20D | 68 | 116 | 113 |

Same assay, conditions: Homo sapiens; pH 2.65; Thermal; DSC; Gly-HCl 0.05 M; structure 1LZ1; whole UniProt chain shown

| Variant | Tm [°C] | unfolding enthalpy (calorimetric) [kcal/mol] | unfolding enthalpy (van 't Hoff) [kcal/mol] |
| --- | --- | --- | --- |
| V20S | 59.4 | 103 | 103 |

Same assay, conditions: Homo sapiens; pH 3.09; Thermal; DSC; Gly-HCl 0.05 M; structure 1LZ1; whole UniProt chain shown

| Variant | Tm [°C] | unfolding enthalpy (calorimetric) [kcal/mol] | unfolding enthalpy (van 't Hoff) [kcal/mol] |
| --- | --- | --- | --- |
| V20S | 67.1 | 115 | 114 |

Same assay, conditions: Homo sapiens; pH 3.45; Thermal; DSC; Gly-HCl 0.05 M; structure 1LZ1; whole UniProt chain shown

| Variant | Tm [°C] | unfolding enthalpy (calorimetric) [kcal/mol] | unfolding enthalpy (van 't Hoff) [kcal/mol] |
| --- | --- | --- | --- |
| V20S | 73 | 124 | 126 |

Same assay, conditions: Homo sapiens; pH 2.8; Thermal; DSC; Gly-HCl 0.05 M; structure 1LZ1; whole UniProt chain shown

| Variant | Tm [°C] | unfolding enthalpy (calorimetric) [kcal/mol] | unfolding enthalpy (van 't Hoff) [kcal/mol] |
| --- | --- | --- | --- |
| V128R | 69.3 | 108 | 110 |

Same assay, conditions: Homo sapiens; pH 2.63; Thermal; DSC; Gly-HCl 0.05 M; structure 1LZ1; whole UniProt chain shown

| Variant | Tm [°C] | unfolding enthalpy (calorimetric) [kcal/mol] | unfolding enthalpy (van 't Hoff) [kcal/mol] |
| --- | --- | --- | --- |
| V128D | 63.9 | 90.3 | 108 |

Same assay, conditions: Homo sapiens; pH 2.84; Thermal; DSC; Gly-HCl 0.05 M; structure 1LZ1; whole UniProt chain shown

| Variant | Tm [°C] | unfolding enthalpy (calorimetric) [kcal/mol] | unfolding enthalpy (van 't Hoff) [kcal/mol] |
| --- | --- | --- | --- |
| V128D | 67.9 | 96.8 | 112 |

Same assay, conditions: Homo sapiens; pH 3; Thermal; DSC; Gly-HCl 0.05 M; structure 1LZ1; whole UniProt chain shown

| Variant | Tm [°C] | unfolding enthalpy (calorimetric) [kcal/mol] | unfolding enthalpy (van 't Hoff) [kcal/mol] |
| --- | --- | --- | --- |
| V128D | 70.4 | 103 | 120 |

Same assay, conditions: Homo sapiens; pH 3.34; Thermal; DSC; Gly-HCl 0.05 M; structure 1LZ1; whole UniProt chain shown

| Variant | Tm [°C] | unfolding enthalpy (calorimetric) [kcal/mol] | unfolding enthalpy (van 't Hoff) [kcal/mol] |
| --- | --- | --- | --- |
| V128D | 75.5 | 108 | 125 |
